In publication PMC10329844, “Regulatory architecture of housekeeping genes is driven by promoter assemblies”:

What was measured:
[1] = target: T1, Ronin (Thap11), Prospec PRO-2009 (UniProt Q96EK4 1-314); test: competition; no effect on Ronin-stimulated circularization of N3; Circularization: 1x T4 ligase buffer, 100 ng DNA, 1.358 uM protein, 10 uL, 25 min RT, then ligase 20 min RT. AFM: 1x LightShift binding buffer, 350 mM KCl, 1 mM EDTA, 6% glycerol, 10 min on ice, then 0.4x T4 ligase buffer, 20% glycerol, 1 mM EDTA, 2 mM GTP, 30 min RT; conditions: protein: commercial; blunt
T1 sequence (Q96EK4 whole entry): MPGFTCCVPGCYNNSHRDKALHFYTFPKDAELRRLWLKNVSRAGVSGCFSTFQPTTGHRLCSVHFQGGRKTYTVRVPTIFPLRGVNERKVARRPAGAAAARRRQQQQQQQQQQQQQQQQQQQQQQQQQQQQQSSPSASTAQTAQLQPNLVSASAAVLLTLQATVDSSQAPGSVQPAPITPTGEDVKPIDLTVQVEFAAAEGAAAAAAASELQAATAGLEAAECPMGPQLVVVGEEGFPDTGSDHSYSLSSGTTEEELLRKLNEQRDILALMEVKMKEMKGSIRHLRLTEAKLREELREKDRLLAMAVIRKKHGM

[2] = target: T1, Ronin (Thap11), Prospec PRO-2009; test: competition; abolishes Ronin-stimulated circularization of N3; Circularization: 1x T4 ligase buffer, 100 ng DNA, 1.358 uM protein, 10 uL, 25 min RT, then ligase 20 min RT. AFM: 1x LightShift binding buffer, 350 mM KCl, 1 mM EDTA, 6% glycerol, 10 min on ice, then 0.4x T4 ligase buffer, 20% glycerol, 1 mM EDTA, 2 mM GTP, 30 min RT; conditions: protein: commercial; blunt

Binder	binding result [1]	binding result [2]
C2 competitor (both RBM half-sites mutated) (dsDNA) DNA 1: ACTAGCTCTTGATTCCGGAGCTGGAGGCAATCTCT DNA 2: AGAGATTGCCTCCAGCTCCGGAATCAAGAGCTAGT	no binding	–
C1 competitor (RBM in random flanks) (dsDNA) DNA 1: ACTAGCTCTCTGGGAATTGTAGTTCGGCAATCTCT DNA 2: AGAGATTGCCGAACTACAATTCCCAGAGAGCTAGT	–	binds
